This passage reports T½ Max (seconds), coagulation of human plasma and coagulation time results from patent US20120237528A1.

The target of the test is Innovin, lyophilized recombinant human tissue factor combined with phospholipids (human) (UniProt P13726). Briefly: cell-based or functional assay.
Sequence of Innovin, lyophilized recombinant human tissue factor combined with phospholipids (human) (P13726 33-295 limits assumed): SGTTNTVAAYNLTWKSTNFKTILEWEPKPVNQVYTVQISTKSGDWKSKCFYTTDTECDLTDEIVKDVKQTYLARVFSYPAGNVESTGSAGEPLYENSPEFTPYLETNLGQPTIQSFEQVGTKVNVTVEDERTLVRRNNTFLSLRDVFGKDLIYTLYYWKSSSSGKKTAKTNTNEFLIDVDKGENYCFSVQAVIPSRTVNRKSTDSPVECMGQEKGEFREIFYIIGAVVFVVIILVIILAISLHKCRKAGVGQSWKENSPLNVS

Regarding “CNTO 860, humanized form of the antibody 5G9, human IgG1/Kappa”, the T½ Max (seconds), coagulation of human plasma was greater than 900 s and the coagulation time was greater than 1800 s.
